Data on two substances can be found in US20210389324.

Data set [1] deals with CFP-FOXP3-YFP (18-residue).
Data set [2] deals with CFP-FOXP3-YFP (25-residue).
The test system of data set [3] is CFP-MYH6/7-YFP (16-residue).
Data set [4] has as its system CFP-MYH6/7-YFP (23-residue).
In data set [5] the test system is CFP-TRIM14-YFP 19-residue substrate.
Data set [6] relates to CFP-TRIM14-YFP 22-residue substrate.

In the case of “Recombinant MERS-CoV-2 Papain-like Protease”, the “cleavage of CFP-YFP substrate” value in [1] was “SARS-CoV-2, MERS PLpro”; in data set [2], “SARS-CoV-2, MERS PLpro”; in data set [3], “SARS-CoV-2, MERS PLpro”; in data set [4], “SARS-CoV-2, MERS PLpro”; with CFP-PROS1-YFP, “SARS-CoV-2, MERS PLpro”.

Consider “Recombinant VEEV nsP2-thioredoxin Protease containing residues 457-792”, for which the “cleavage of CFP-YFP substrate” value is “CHIKV and VEEV nsP2 cysteine protease” in the data set on CFP-SFVp12-YFP 11:6; “CHIKV and VEEV nsP2 cysteine protease” with CFP-SFVp12-YFP 19:6; “VEEV nsP2 cysteine protease” in data set [5]; “VEEV nsP2 cysteine protease” in data set [6]; “VEEV nsP2 cysteine protease” in the data set on CFP-V34-YFP; “VEEV nsP2 cysteine protease” in the data set on CFP-VEEVnsP23-YFP. Also, the Km in data set [5] came to 50 µM; in data set [6], 26 µM; with CFP-V34-YFP it was 21 µM. Moreover, the Vmax was 0.012 U/mg in data set [5], 0.008 U/mg in [6] and 0.089 U/mg in the data set with CFP-V34-YFP.
